Reference: the supplement of paper PMC10567573

B1: CCNC (parent)
chain: QSSHYLQWILDKQDLLKERQKDLK

Variants of: B1
Experiment: protein stability index of a GFP-peptide fusion (GPS, HEK-293T) (PSI 1-6); higher = more stable
Conditions: c terminus: a fixed tail appended
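Note: lentivirally expressed fusions sorted by FACS into six bins by GFP to DsRed ratio, PSI derived from sequencing read proportions per bin multiplied by bin number.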

Q: For QSSHYLQWYLDKQDLLKERQKDLK, which protein stability index is on record?
A: The protein stability index was 3.32.

Q: For QSSHYLQWTLDKQDLLKERQKDLK, which protein stability index is on record?
A: The protein stability index was 3.74.

Q: With QSSHYLQWWLDKQDLLKERQKDLK as the variant, how does the protein stability index read?
A: Its protein stability index is 3.83.

Q: For QSSHYLQWILDKQDLLKEPQKDLK, which protein stability index is on record?
A: Its protein stability index is 3.56.

Q: Which protein stability index does the source give for QSSHYLQWILDKQDLLKENQKDLK here?
A: Its protein stability index is 3.72.

Q: Which protein stability index does the source give for QSSHYLQWILDKQDLLKELQKDLK here?
A: Its protein stability index is 2.06.

Q: With QSSHYLQWILDKQDLLKEMQKDLK as the variant, how does the protein stability index read?
A: The protein stability index was 2.12.

Q: With QSSHYLQWILDKQDLLKEEQKDLK as the variant, how does the protein stability index read?
A: The protein stability index was 3.81.

Q: Which protein stability index does the source give for QSSHYLQWILDKQDLLKEIQKDLK here?
A: The protein stability index was 2.29.

Q: For QSSHYLQWILDKQDLLKEDQKDLK, which protein stability index is on record?
A: Its protein stability index is 3.93.

Q: With QSSHYLQWILDKQDLLKEQQKDLK as the variant, how does the protein stability index read?
A: Its protein stability index is 3.5.

Q: Which protein stability index does the source give for QSSHYLQWILDKQDLLKEGQKDLK here?
A: The protein stability index was 3.25.

Q: Which protein stability index does the source give for QSSHYLQWILDKQDLLKEAQKDLK here?
A: The protein stability index was 2.75.

Q: Which protein stability index does the source give for QSSHYLQWILDKQDLLKESQKDLK here?
A: Its protein stability index is 2.94.

Q: For QSSHYLQWILDKQDLLKEFQKDLK, which protein stability index is on record?
A: Its protein stability index is 2.14.

Q: For QSSHYLQWILDKQDLLKEHQKDLK, which protein stability index is on record?
A: Its protein stability index is 3.03.

Q: Which protein stability index does the source give for QSSHYLQWILDKQDLLKECQKDLK here?
A: Its protein stability index is 2.42.

Q: Which protein stability index does the source give for QSSHYLQWILDKQDLLKEKQKDLK here?
A: Its protein stability index is 3.27.

Q: With QSSHYLQWILDKQDLLMERQKDLK as the variant, how does the protein stability index read?
A: The protein stability index was 3.14.

Q: Which protein stability index does the source give for QSSHYLQWILDKQDLLEERQKDLK here?
A: The protein stability index was 3.35.

Q: With QSSHYLQWILDKQDLLGERQKDLK as the variant, how does the protein stability index read?
A: The protein stability index was 2.96.

Q: With QSSHYLQWILDKQDLLCERQKDLK as the variant, how does the protein stability index read?
A: Its protein stability index is 2.71.

Q: For QSSHYLQWILDKQDLLRERQKDLK, which protein stability index is on record?
A: Its protein stability index is 2.33.

Q: With QSSHYLQWILDKQDLLSERQKDLK as the variant, how does the protein stability index read?
A: Its protein stability index is 3.66.

Q: Which protein stability index does the source give for QSSHYLQWILDKQDLLAERQKDLK here?
A: The protein stability index was 3.21.

Q: For QSSHYLQWILDKQDLLYERQKDLK, which protein stability index is on record?
A: The protein stability index was 2.09.

Q: Which protein stability index does the source give for QSSHYLQWILDKQDLLTERQKDLK here?
A: Its protein stability index is 3.34.

Q: Which protein stability index does the source give for QSSHYLQWILDKQDLLLERQKDLK here?
A: Its protein stability index is 2.68.

Q: For QSSHYLQWILDKQDLLHERQKDLK, which protein stability index is on record?
A: Its protein stability index is 2.93.

Q: For QSSHYLQWILDKQDLLDERQKDLK, which protein stability index is on record?
A: The protein stability index was 2.94.

Q: For QSSHYLQWILDKQDLLVERQKDLK, which protein stability index is on record?
A: Its protein stability index is 2.82.

Q: With QSSHYLQWILDKQDLLFERQKDLK as the variant, how does the protein stability index read?
A: The protein stability index was 2.62.

Q: For QSSHYLQWILDKQDLLQERQKDLK, which protein stability index is on record?
A: Its protein stability index is 4.4.

Q: Which protein stability index does the source give for QSSHYLQWILDKQDLLIERQKDLK here?
A: Its protein stability index is 2.09.

Q: Which protein stability index does the source give for QSSHYLQWILDKQDLLWERQKDLK here?
A: Its protein stability index is 1.97.

Q: With QSSHYLQWILDKQDLLPERQKDLK as the variant, how does the protein stability index read?
A: The protein stability index was 3.38.

Q: Which protein stability index does the source give for QSSHYLQWILDKQDLLNERQKDLK here?
A: The protein stability index was 3.53.

Q: For QSSHYLQWILDKQGLLKERQKDLK, which protein stability index is on record?
A: The protein stability index was 3.8.

Q: With QSSHYLQWILDKQYLLKERQKDLK as the variant, how does the protein stability index read?
A: The protein stability index was 2.61.

Q: Which protein stability index does the source give for QSSHYLQWILDKQVLLKERQKDLK here?
A: Its protein stability index is 2.9.

Q: Which protein stability index does the source give for QSSHYLQWILDKQALLKERQKDLK here?
A: The protein stability index was 2.58.

Q: For QSSHYLQWILDKQMLLKERQKDLK, which protein stability index is on record?
A: The protein stability index was 2.97.

Q: Which protein stability index does the source give for QSSHYLQWILDKQLLLKERQKDLK here?
A: The protein stability index was 2.8.

Q: Which protein stability index does the source give for QSSHYLQWILDKQILLKERQKDLK here?
A: Its protein stability index is 2.55.

Q: For QSSHYLQWILDKQNLLKERQKDLK, which protein stability index is on record?
A: The protein stability index was 3.39.

Q: With QSSHYLQWILDKQPLLKERQKDLK as the variant, how does the protein stability index read?
A: Its protein stability index is 3.17.

Q: Which protein stability index does the source give for QSSHYLQWILDKQELLKERQKDLK here?
A: Its protein stability index is 4.29.

Q: Which protein stability index does the source give for QSSHYLQWILDKQKLLKERQKDLK here?
A: The protein stability index was 3.65.

Q: With QSSHYLQWILDKQQLLKERQKDLK as the variant, how does the protein stability index read?
A: Its protein stability index is 3.48.

Q: Which protein stability index does the source give for QSSHYLQWILDKQRLLKERQKDLK here?
A: The protein stability index was 2.7.

Q: For QSSHYLQWILDKQHLLKERQKDLK, which protein stability index is on record?
A: Its protein stability index is 2.83.

Q: With QSSHYLQWILDKQSLLKERQKDLK as the variant, how does the protein stability index read?
A: The protein stability index was 2.55.

Q: With QSSHYLQWILDKQTLLKERQKDLK as the variant, how does the protein stability index read?
A: Its protein stability index is 3.36.

Q: Which protein stability index does the source give for QSSHYLQWILDKQWLLKERQKDLK here?
A: Its protein stability index is 2.73.

Q: For QSSHYLQWILDKQCLLKERQKDLK, which protein stability index is on record?
A: The protein stability index was 2.79.

Q: With QSSHYLQWILDKQFLLKERQKDLK as the variant, how does the protein stability index read?
A: The protein stability index was 2.22.

Q: For QSSHYLQWITDKQDLLKERQKDLK, which protein stability index is on record?
A: The protein stability index was 3.34.

Q: For QSSHYLQWISDKQDLLKERQKDLK, which protein stability index is on record?
A: The protein stability index was 4.

Q: Which protein stability index does the source give for QSSHYLQWIADKQDLLKERQKDLK here?
A: Its protein stability index is 4.22.

Q: Which protein stability index does the source give for QSSHYLQWIPDKQDLLKERQKDLK here?
A: Its protein stability index is 4.58.

Q: With QSSHYLQWIGDKQDLLKERQKDLK as the variant, how does the protein stability index read?
A: The protein stability index was 3.76.

Q: With QSSHYLQWIEDKQDLLKERQKDLK as the variant, how does the protein stability index read?
A: The protein stability index was 4.29.

Q: For QSSHYLQWIIDKQDLLKERQKDLK, which protein stability index is on record?
A: The protein stability index was 2.97.

Q: With QSSHYLQWICDKQDLLKERQKDLK as the variant, how does the protein stability index read?
A: The protein stability index was 3.86.

Q: With QSSHYLQWIQDKQDLLKERQKDLK as the variant, how does the protein stability index read?
A: The protein stability index was 4.22.

Q: With QSSHYLQWIMDKQDLLKERQKDLK as the variant, how does the protein stability index read?
A: Its protein stability index is 3.41.

Q: With QSSHYLQWIWDKQDLLKERQKDLK as the variant, how does the protein stability index read?
A: Its protein stability index is 2.54.

Q: With QSSHYLQWIHDKQDLLKERQKDLK as the variant, how does the protein stability index read?
A: Its protein stability index is 3.52.

Q: Which protein stability index does the source give for QSSHYLQWIKDKQDLLKERQKDLK here?
A: The protein stability index was 3.6.

Q: For QSSHYLQWIDDKQDLLKERQKDLK, which protein stability index is on record?
A: Its protein stability index is 4.49.

Q: For QSSHYLQWIFDKQDLLKERQKDLK, which protein stability index is on record?
A: The protein stability index was 3.4.

Q: For QSSHYLQWIRDKQDLLKERQKDLK, which protein stability index is on record?
A: The protein stability index was 3.61.

Q: With QSSHYLQWIYDKQDLLKERQKDLK as the variant, how does the protein stability index read?
A: Its protein stability index is 3.42.

Q: With QSSHYLQWINDKQDLLKERQKDLK as the variant, how does the protein stability index read?
A: Its protein stability index is 4.17.

Q: Which protein stability index does the source give for QSSHYLQWIVDKQDLLKERQKDLK here?
A: The protein stability index was 3.09.

Q: Which protein stability index does the source give for QSSHYLQWILDKQDLHKERQKDLK here?
A: The protein stability index was 4.

Q: For QSSHYLQWILDKQDLTKERQKDLK, which protein stability index is on record?
A: Its protein stability index is 3.73.

Q: With QSSHYLQWILDKQDLQKERQKDLK as the variant, how does the protein stability index read?
A: The protein stability index was 4.15.

Q: Which protein stability index does the source give for QSSHYLQWILDKQDLWKERQKDLK here?
A: The protein stability index was 2.92.

Q: Which protein stability index does the source give for QSSHYLQWILDKQDLRKERQKDLK here?
A: Its protein stability index is 3.78.

Q: With QSSHYLQWILDKQDLVKERQKDLK as the variant, how does the protein stability index read?
A: The protein stability index was 4.04.

Q: With QSSHYLQWILDKQDLEKERQKDLK as the variant, how does the protein stability index read?
A: Its protein stability index is 4.

Q: Which protein stability index does the source give for QSSHYLQWILDKQDLNKERQKDLK here?
A: The protein stability index was 4.

Q: Which protein stability index does the source give for QSSHYLQWILDKQDLSKERQKDLK here?
A: Its protein stability index is 4.05.

Q: Which protein stability index does the source give for QSSHYLQWILDKQDLYKERQKDLK here?
A: Its protein stability index is 2.57.

Q: Which protein stability index does the source give for QSSHYLQWILDKQDLFKERQKDLK here?
A: The protein stability index was 3.23.

Q: For QSSHYLQWILDKQDLPKERQKDLK, which protein stability index is on record?
A: Its protein stability index is 4.26.

Q: For QSSHYLQWILDKQDLIKERQKDLK, which protein stability index is on record?
A: The protein stability index was 3.64.

Q: Which protein stability index does the source give for QSSHYLQWILDKQDLGKERQKDLK here?
A: The protein stability index was 3.43.

Q: With QSSHYLQWILDKQDLDKERQKDLK as the variant, how does the protein stability index read?
A: Its protein stability index is 3.58.

Q: For QSSHYLQWILDKQDLKKERQKDLK, which protein stability index is on record?
A: The protein stability index was 3.54.

Q: Which protein stability index does the source give for QSSHYLQWILDKQDLCKERQKDLK here?
A: The protein stability index was 3.52.

Q: Which protein stability index does the source give for QSSHYLQWILDKQDLAKERQKDLK here?
A: Its protein stability index is 3.74.

Q: With QSSHYLQWILDKQDLMKERQKDLK as the variant, how does the protein stability index read?
A: Its protein stability index is 2.52.
